{
  "source": "paper PMC3970758",
  "about": "“A conserved MCM single-stranded DNA binding element is essential for replication initiation”",
  "binders": {"B1": {"name": "26-mer dsDNA (dsDNA)", "DNA 1": "ATGGCAGATCTCAATTGGATATCGGC", "DNA 2": "GCCGATATCCAATTGAGATCTGCCAT"}},
  "key": {"PfMCMN R186A [1]": {"biological_target": "T1, PfMCMN R186A (Pyrococcus furiosus, UniProt Q8U3I4 1-256, R186A)", "T1 sequence": "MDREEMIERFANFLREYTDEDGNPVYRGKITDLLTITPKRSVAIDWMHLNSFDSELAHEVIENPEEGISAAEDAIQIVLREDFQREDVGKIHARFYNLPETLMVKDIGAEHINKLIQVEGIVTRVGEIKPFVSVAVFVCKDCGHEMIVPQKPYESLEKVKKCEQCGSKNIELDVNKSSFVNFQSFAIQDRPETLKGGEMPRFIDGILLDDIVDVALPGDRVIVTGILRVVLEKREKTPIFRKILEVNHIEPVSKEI", "test": "EMSA; 5 mM Mg2+; EMSA: 20 mM HEPES pH 7.6, 200 mM NaCl, 5 mM MgCl2, 5 mM bME, 25 C, 30 min, 160 nM DNA; 4-20% TBE PAGE", "details": "protein: recombinant; tags: His6-SUMO removed by Ulp1; label: 5'-fluorescein on strand 1; blunt"}, "PfMCMN R124A [2]": {"biological_target": "T2, PfMCMN R124A (Pyrococcus furiosus, UniProt Q8U3I4 1-256, R124A)", "T2 sequence": "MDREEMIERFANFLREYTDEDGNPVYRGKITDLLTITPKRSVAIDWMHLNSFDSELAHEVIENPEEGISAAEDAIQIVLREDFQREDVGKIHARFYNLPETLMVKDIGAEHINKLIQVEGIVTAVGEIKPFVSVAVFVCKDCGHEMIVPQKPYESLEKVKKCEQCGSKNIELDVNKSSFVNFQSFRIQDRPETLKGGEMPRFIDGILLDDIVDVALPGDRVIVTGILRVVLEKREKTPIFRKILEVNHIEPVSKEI", "test": "EMSA; 5 mM Mg2+; EMSA: 20 mM HEPES pH 7.6, 200 mM NaCl, 5 mM MgCl2, 5 mM bME, 25 C, 30 min, 160 nM DNA; 4-20% TBE PAGE", "details": "protein: recombinant; tags: His6-SUMO removed by Ulp1; label: 5'-fluorescein on strand 1; blunt"}, "PfMCMN K129A [3]": {"biological_target": "T3, PfMCMN K129A (Pyrococcus furiosus, UniProt Q8U3I4 1-256, K129A)", "T3 sequence": "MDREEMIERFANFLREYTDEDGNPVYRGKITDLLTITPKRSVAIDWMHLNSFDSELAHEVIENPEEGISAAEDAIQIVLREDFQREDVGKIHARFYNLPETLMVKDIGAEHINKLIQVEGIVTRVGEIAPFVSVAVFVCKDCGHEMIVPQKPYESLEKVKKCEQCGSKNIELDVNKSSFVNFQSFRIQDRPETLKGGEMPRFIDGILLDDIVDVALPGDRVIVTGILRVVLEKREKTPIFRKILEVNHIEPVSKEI", "test": "EMSA; 5 mM Mg2+; EMSA: 20 mM HEPES pH 7.6, 200 mM NaCl, 5 mM MgCl2, 5 mM bME, 25 C, 30 min, 160 nM DNA; 4-20% TBE PAGE", "details": "protein: recombinant; tags: His6-SUMO removed by Ulp1; label: 5'-fluorescein on strand 1; blunt"}, "PfMCMN R124A/R186A [4]": {"biological_target": "T4, PfMCMN R124A/R186A (Pyrococcus furiosus, UniProt Q8U3I4 1-256, R124A;R186A)", "T4 sequence": "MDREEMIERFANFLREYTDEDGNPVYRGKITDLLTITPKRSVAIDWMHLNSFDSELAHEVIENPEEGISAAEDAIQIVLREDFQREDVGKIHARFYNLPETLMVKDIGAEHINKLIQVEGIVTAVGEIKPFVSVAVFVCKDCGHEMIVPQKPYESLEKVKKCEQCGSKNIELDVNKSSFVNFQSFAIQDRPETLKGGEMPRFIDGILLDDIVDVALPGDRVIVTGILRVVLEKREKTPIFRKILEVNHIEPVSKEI", "test": "EMSA; 5 mM Mg2+; protein 10-40 uM; EMSA: 20 mM HEPES pH 7.6, 200 mM NaCl, 5 mM MgCl2, 5 mM bME, 25 C, 30 min, 160 nM DNA; 4-20% TBE PAGE", "details": "protein: recombinant; tags: His6-SUMO removed by Ulp1; label: 5'-fluorescein on strand 1; blunt"}, "PfMCMN R186A [5]": {"biological_target": "T1, PfMCMN R186A", "test": "EMSA; 5 mM Mg2+; EMSA: 20 mM HEPES pH 7.6, 200 mM NaCl, 5 mM MgCl2, 5 mM bME, 25 C, 30 min, 160 nM DNA; 4-20% TBE PAGE", "details": "protein: recombinant; tags: His6-SUMO removed by Ulp1; label: 5'-fluorescein"}, "PfMCMN R124A [6]": {"biological_target": "T2, PfMCMN R124A", "test": "EMSA; 5 mM Mg2+; EMSA: 20 mM HEPES pH 7.6, 200 mM NaCl, 5 mM MgCl2, 5 mM bME, 25 C, 30 min, 160 nM DNA; 4-20% TBE PAGE", "details": "protein: recombinant; tags: His6-SUMO removed by Ulp1; label: 5'-fluorescein"}, "PfMCMN K129A [7]": {"biological_target": "T3, PfMCMN K129A", "test": "EMSA; 5 mM Mg2+; EMSA: 20 mM HEPES pH 7.6, 200 mM NaCl, 5 mM MgCl2, 5 mM bME, 25 C, 30 min, 160 nM DNA; 4-20% TBE PAGE", "details": "protein: recombinant; tags: His6-SUMO removed by Ulp1; label: 5'-fluorescein"}, "PfMCMN F202A": {"biological_target": "T5, PfMCMN F202A (Pyrococcus furiosus, UniProt Q8U3I4 1-256, F202A)", "T5 sequence": "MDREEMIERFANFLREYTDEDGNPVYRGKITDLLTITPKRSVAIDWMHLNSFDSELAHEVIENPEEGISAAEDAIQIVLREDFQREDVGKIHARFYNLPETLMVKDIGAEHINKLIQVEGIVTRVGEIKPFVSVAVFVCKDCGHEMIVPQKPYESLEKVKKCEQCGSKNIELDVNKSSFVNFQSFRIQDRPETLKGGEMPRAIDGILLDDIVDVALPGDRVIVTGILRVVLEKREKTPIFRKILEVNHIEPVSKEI", "test": "EMSA; 5 mM Mg2+; EMSA: 20 mM HEPES pH 7.6, 200 mM NaCl, 5 mM MgCl2, 5 mM bME, 25 C, 30 min, 160 nM DNA; 4-20% TBE PAGE", "details": "protein: recombinant; tags: His6-SUMO removed by Ulp1; label: 5'-fluorescein"}, "PfMCMN K233A": {"biological_target": "T6, PfMCMN K233A (Pyrococcus furiosus, UniProt Q8U3I4 1-256, K233A)", "T6 sequence": "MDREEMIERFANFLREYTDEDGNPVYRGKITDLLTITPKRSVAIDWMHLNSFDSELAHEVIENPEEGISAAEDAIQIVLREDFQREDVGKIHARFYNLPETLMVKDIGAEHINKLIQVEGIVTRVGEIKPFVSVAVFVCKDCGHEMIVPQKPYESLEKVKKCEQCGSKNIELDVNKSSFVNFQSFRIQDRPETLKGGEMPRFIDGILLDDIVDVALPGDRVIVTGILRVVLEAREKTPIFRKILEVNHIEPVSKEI", "test": "EMSA; 5 mM Mg2+; EMSA: 20 mM HEPES pH 7.6, 200 mM NaCl, 5 mM MgCl2, 5 mM bME, 25 C, 30 min, 160 nM DNA; 4-20% TBE PAGE", "details": "protein: recombinant; tags: His6-SUMO removed by Ulp1; label: 5'-fluorescein"}, "PfMCMN R124A/R186A [8]": {"biological_target": "T4, PfMCMN R124A/R186A", "test": "EMSA; 5 mM Mg2+; protein 54-270 uM; EMSA: 20 mM HEPES pH 7.6, 200 mM NaCl, 5 mM MgCl2, 5 mM bME, 25 C, 30 min, 160 nM DNA; 4-20% TBE PAGE", "details": "protein: recombinant; tags: His6-SUMO removed by Ulp1; label: 5'-fluorescein"}},
  "data": [
    {"binder": "B1", "values": [
      {"measurement": "binding result", "setting": "PfMCMN R186A [1]", "result": "binds"},
      {"measurement": "binding result", "setting": "PfMCMN R124A [2]", "result": "binds"},
      {"measurement": "binding result", "setting": "PfMCMN K129A [3]", "result": "binds"},
      {"measurement": "binding signal", "setting": "PfMCMN R124A/R186A [4]", "result": 3, "unit": "fold reduction vs WT"}
    ]},
    {"binder": "TTTTTTTTTTTTTTTTTTTTTTTTTTTTTTTTTTTTTTTT (ssDNA)", "note": "[T40 ssDNA]", "values": [
      {"measurement": "binding signal", "setting": "PfMCMN R186A [5]", "result": 6, "unit": "fold reduction vs WT"},
      {"measurement": "binding signal", "setting": "PfMCMN R124A [6]", "result": 7, "unit": "fold reduction vs WT"},
      {"measurement": "binding signal", "setting": "PfMCMN K129A [7]", "result": 4, "unit": "fold reduction vs WT"},
      {"measurement": "binding result", "setting": "PfMCMN F202A", "result": "binds"},
      {"measurement": "binding result", "setting": "PfMCMN K233A", "result": "binds"},
      {"measurement": "binding signal", "setting": "PfMCMN R124A/R186A [8]", "result": 25, "unit": "fold reduction vs WT"}
    ]}
  ]
}
